Data published in the supplement of paper PMC9876800.

Tested on: peptide library, one residue held at a place counted from the S/T acceptor
Test: relative phosphorylation of the sub-library (ratio to the mean residue at this position); higher = residue favoured
Details: human
Outline: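 In 384-well plates, purified recombinant kinases (human or orthologue constructs) were incubated for 90 min under kinase-specific conditions with 50 μM biotinylated degenerate peptide sub-libraries and 50 μM ATP spiked with γ-32P-ATP. Each sub-library fixed a single residue at one position around a central Ser/Thr. Relative sub-library phosphorylation, measured by phosphorimaging and densitometry of streptavidin membrane spots, is given as a ratio to the mean residue at that position.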

TAOK1, construct: aa1-356, sequence (Q7L7X3 1-356, looked up): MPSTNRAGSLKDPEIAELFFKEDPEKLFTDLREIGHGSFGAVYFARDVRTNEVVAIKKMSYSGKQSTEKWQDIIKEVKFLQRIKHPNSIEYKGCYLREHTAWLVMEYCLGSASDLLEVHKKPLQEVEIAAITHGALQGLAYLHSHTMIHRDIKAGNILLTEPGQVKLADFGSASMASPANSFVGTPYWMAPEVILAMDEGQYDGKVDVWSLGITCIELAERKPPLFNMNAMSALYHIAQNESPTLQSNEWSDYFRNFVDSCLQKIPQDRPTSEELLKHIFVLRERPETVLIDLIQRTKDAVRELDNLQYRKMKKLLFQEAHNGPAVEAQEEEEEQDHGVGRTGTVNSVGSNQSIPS
CLK2, construct: aa137-498, sequence (P49760 137-498, looked up): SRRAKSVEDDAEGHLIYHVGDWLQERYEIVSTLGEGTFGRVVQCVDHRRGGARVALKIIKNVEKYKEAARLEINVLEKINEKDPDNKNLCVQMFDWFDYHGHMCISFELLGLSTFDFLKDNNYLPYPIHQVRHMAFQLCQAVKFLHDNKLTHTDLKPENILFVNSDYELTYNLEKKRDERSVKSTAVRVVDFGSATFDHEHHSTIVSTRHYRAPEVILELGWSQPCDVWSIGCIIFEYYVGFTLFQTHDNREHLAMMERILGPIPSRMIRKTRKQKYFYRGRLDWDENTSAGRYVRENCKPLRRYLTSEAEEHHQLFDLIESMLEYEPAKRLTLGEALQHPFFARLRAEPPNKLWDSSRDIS

TAOK1, construct: aa1-356 (from UniProt Q7L7X3)
relative phosphorylation
Details	at +1	at +2	at +3	at +4	at -1	at -2	at -3	at -4	at -5
A fixed	0.401	0.732	0.799	0.651	0.775	1.05	0.861	0.969	0.986
D fixed	0.16	0.494	0.336	0.409	0.645	0.589	0.515	0.911	0.93
E fixed	0.122	0.282	0.296	0.421	0.345	0.42	0.59	0.969	0.816
F fixed	1.53	0.505	0.853	0.835	1.07	1.74	0.817	0.95	0.933
G fixed	0.352	0.705	1.06	0.773	1.47	1.42	1.73	1.29	1.18
H fixed	0.855	1.11	0.901	1.17	1.52	0.583	0.99	1.04	1.08
I fixed	1.83	0.612	0.692	0.786	0.381	0.577	0.533	0.696	0.757
K fixed	0.504	2.83	2.32	1.79	1.15	1.02	2.24	1.29	1.36
L fixed	1.85	0.54	0.809	0.727	1.08	0.629	0.554	0.728	0.773
M fixed	2.05	0.721	0.686	0.861	1.45	0.92	0.661	0.873	0.88
N fixed	0.398	1.46	0.87	0.805	1.31	0.9	0.875	0.999	0.982
P fixed	0.319	0.777	1.13	0.711	0.47	0.858	0.988	1.01	1.02
Q fixed	0.461	0.837	0.762	0.759	0.746	0.742	0.879	0.937	0.844
R fixed	0.559	3.26	2.89	2.44	1.44	1.08	1.81	1.39	1.24
V fixed	1.21	0.723	0.602	0.635	0.419	0.658	0.505	0.765	0.821
W fixed	2.88	0.622	1.08	1.76	0.996	1.13	1.06	1.05	1.21
Y fixed	1.52	0.794	0.916	1.46	1.73	2.68	1.39	1.13	1.18
pThr fixed	0.365	0.32	0.327	0.386	0.306	0.469	0.667	0.78	0.881
pTyr fixed	0.295	0.337	0.45	0.432	1.56	0.733	0.622	0.777	0.963

CLK2, construct: aa137-498 (from UniProt P49760)
relative phosphorylation
Details	at +1	at +2	at +3	at +4	at -1	at -2	at -3	at -4	at -5
A fixed	0.537	1.38	0.558	0.879	1.16	1.94	0.571	1.2	1.14
D fixed	0.278	1.66	0.658	2.06	0.653	0.869	0.537	0.818	0.937
E fixed	1.31	2.38	0.614	2.16	0.846	1.79	0.471	0.964	0.865
F fixed	0.258	0.524	0.357	0.734	0.316	0.239	0.223	0.547	0.929
G fixed	0.82	1.31	0.908	0.989	1.78	1.51	0.615	1.42	1.23
H fixed	0.56	0.949	0.851	0.93	0.812	0.538	0.627	0.906	1.05
I fixed	0.388	0.352	0.246	0.491	0.194	0.159	0.176	0.441	0.412
K fixed	0.663	0.989	2.22	1.03	2.09	1.06	2.11	1.82	2.18
L fixed	0.433	0.565	0.396	0.645	0.416	0.266	0.209	0.485	0.478
M fixed	0.872	0.633	0.332	0.764	0.614	0.328	0.277	0.707	0.54
N fixed	0.464	0.968	0.95	1.18	1.07	0.522	0.473	0.897	1.05
P fixed	7.13	1.76	2.02	0.754	2.01	0.616	0.523	1.29	0.976
Q fixed	1.05	1.02	0.772	1.28	1.28	0.824	0.64	1.07	0.879
R fixed	0.767	1.08	5.17	1.12	2.29	5.66	8.88	2.84	2.51
V fixed	0.804	0.483	0.322	0.695	0.465	0.2	0.222	0.521	0.604
W fixed	0.296	0.468	0.305	0.626	0.467	0.219	0.219	0.491	0.607
Y fixed	0.367	0.468	0.314	0.668	0.543	0.266	0.23	0.582	0.614
pThr fixed	1.28	5.19	0.962	4.17	0.539	0.556	0.521	0.958	1
pTyr fixed	1.47	1.44	1.32	1.97	2.09	0.473	0.485	1.08	1.12
